Test results published in US20190092852A1 (Genentech, published 2019).

B1: 10C12.38.H6.87Y.58I IgG4 (antibody, V domains shown)
VH: EVQLVESGGGLVQPGGSLRLSCAASGFTFSSFSMSWVRQAPGKGLEWVATISGGKTFTDYVDSVKGRFTISRDDSKNTLYLQMNSLRAEDTAVYYCTRANYGNWFFEVWGQGTLVTVSS
VL: EIVLTQSPATLSLSPGERATLSCRASESVAKYGLSLLNWFQQKPGQPPRLLIFAASNRGSGIPARFSGSGSGTDFTLTISSLEPEDFAVYYCQQSKEVPFTFGQGTKVEIKR
notes: also called anti-IL33 10C12.38.H6.87Y.58I IgG4
B2: H4H9659P (antibody, IgG4, V domains shown)
VH: QVQLVQSGAEVKKPGASVKVSCKASGYTFNSYGISWVRQAPGQGLEWMGWISSHNGNSHYVQKFQGRVSMTTDTSTSTAYMELRSLRSDDTAVYYCARHSYTTSWYGGFDYWGQGTLVTVSS
VL: DIQMTQSPSSVSASVGDRVTITCRASQGFSSWLAWYQQKPGKAPQLLIYAASSLQSGVPSRFSGSGSGSDFTLTISSLQPEDFATYYCQQANSFPLTFGGGTKVEIK
notes: also called RG7

Tests used:
[1] = biological target: T1, human IL-33 (R&D Systems, #3625-IL-010/CF) (human, UniProt O95760 112-270); test: SPR Biacore T200, 25 C
T1 construct: also called hIL-33; huIL-33
T1 sequence (looked up): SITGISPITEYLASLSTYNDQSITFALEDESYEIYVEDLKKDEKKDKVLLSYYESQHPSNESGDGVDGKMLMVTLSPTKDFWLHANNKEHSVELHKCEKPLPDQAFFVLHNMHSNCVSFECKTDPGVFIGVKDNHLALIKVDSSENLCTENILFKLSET
How it was run: (§1)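 Antibodies captured via anti-Fc on CM5 chip; IL-33 injected at 3.7–100 nM (three-fold series), 4 min association, 10 min dissociation, 30 μl/min, ADA pH 7.4 buffer with 0.15 M NaCl, EDTA, Tween-20, at 25 °C or 37 °C. KD = koff/kon from 1:1 Langmuir fit; t1/2 = ln(2)/(60*koff).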

[2] = biological target: T1, human IL-33 (R&D Systems, …); test: SPR Biacore T200, 37 C
How it was run: as §1

cyno IL-33 N-His = biological target: T2, cyno IL-33 N-His (cynomolgus monkey); test: SPR Biacore T200, 37 C
T2 chain: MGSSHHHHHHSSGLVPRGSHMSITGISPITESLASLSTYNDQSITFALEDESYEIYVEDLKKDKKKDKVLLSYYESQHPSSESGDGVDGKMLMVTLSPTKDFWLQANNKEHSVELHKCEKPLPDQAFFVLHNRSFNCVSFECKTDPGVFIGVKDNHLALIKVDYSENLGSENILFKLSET
How it was run: as §1

[3] = biological target: T1, human IL-33 (R&D Systems, …); test: cell-based or functional assay
[4] = biological target: T1, human IL-33 (R&D Systems, …); test: cell-based or functional assay; remark: listed apart in the source
[5] = biological target: T1, human IL-33 (R&D Systems, …); test: cell-based or functional assay; remark: listed apart in the source
biotinylated cyno IL-33 = biological target: T3, biotinylated cyno IL-33 (cynomolgus monkey, UniProt A0A2K5W3I1 112-269, biotin-labeled with EZ-LINK NHS-PEG4-Biotin); test: competitive ELISA, biotin-cyIL-33 to coated hST2-Fc
T3 construct: also called biotin-cyIL-33
T3 sequence: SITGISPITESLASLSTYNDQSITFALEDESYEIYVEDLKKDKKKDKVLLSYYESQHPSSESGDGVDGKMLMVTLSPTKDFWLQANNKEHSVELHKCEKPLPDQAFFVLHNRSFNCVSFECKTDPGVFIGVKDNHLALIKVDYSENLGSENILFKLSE
How it was run: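 Recombinant human ST2-Fc coated at 1 μg/ml; biotin-IL-33 (final 20 pM human, 45 pM cyno) premixed 1 h RT with serially diluted antibody (0–300 nM final), then bound to ST2-Fc 1 h RT. Streptavidin-polyHRP/TMB, A450; IC₅₀ from four-parameter fit, max blocking relative to IL-33-alone signal minus background.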

Binder | Kd [1] | koff [1] | kon [1] | t1/2 [1] | Kd [2] | koff [2] | kon [2] | t1/2 [2] | Kd (cyno IL-33 N-His) | koff (cyno IL-33 N-His) | kon (cyno IL-33 N-His) | t1/2 (cyno IL-33 N-His) | IC50; IFN-gamma ELISA, primary human NK cells, 260 pM hIL-33 + IL-12 [3] | Ph-p38 MFI at 0.4 nM Ab (500 pM human IL-33, primary basophils) [4] | Ph-p38 MFI at 2 nM Ab (500 pM human IL-33, primary basophils) [5] | IC50 (biotinylated cyno IL-33) | Maximum Blocking (biotinylated cyno IL-33)
B1 | 0.133 nM | 0.000613 s⁻¹ | 4.6e+06 M⁻¹ s⁻¹ | 19 min | 0.0889 nM | 0.000547 s⁻¹ | 6.16e+06 M⁻¹ s⁻¹ | 21 min | 0.476 nM | 0.000804 s⁻¹ | 1.69e+06 M⁻¹ s⁻¹ | 14 min | 3.3e-11 M | 34 MFI | 23 MFI | 0.43 nM | 87%
B2 | 1.09 nM | 0.000499 s⁻¹ | 456000 M⁻¹ s⁻¹ | 23 min | 0.462 nM | 0.000498 s⁻¹ | 1.08e+06 M⁻¹ s⁻¹ | 23 min | 4.13 nM | 0.00114 s⁻¹ | 277000 M⁻¹ s⁻¹ | 10 min | 5.1e-10 M | 119 MFI | 49 MFI | 47 nM | 42%
